Experimental data reported in article PMC7210939, “ABCG2 transports anticancer drugs via a closed-to-open switch” (Nature Communications, 2020).

Biological target: T1, Wild-type human ABCG2 with an N-terminal GFP tag (human, UniProt Q9UNQ0)
T1 construct: ABCG2, human, wild type; also called GFP-ABCG2; WT; not shown: GFP, N-terminal, kept
Test: flow cytometry on cells; 5D3 antibody shift assay: stable GFP-ABCG2 HEK293F cells, 1 ug/mL 5D3 in PBS with 0.5% BSA, 37 °C 45 min, with or without MXN, SN38, imatinib or Ko143; goat-anti-mouse IgG-PE; gated on high GFP
Details: one partner purified

T1 sequence (Q9UNQ0 whole entry): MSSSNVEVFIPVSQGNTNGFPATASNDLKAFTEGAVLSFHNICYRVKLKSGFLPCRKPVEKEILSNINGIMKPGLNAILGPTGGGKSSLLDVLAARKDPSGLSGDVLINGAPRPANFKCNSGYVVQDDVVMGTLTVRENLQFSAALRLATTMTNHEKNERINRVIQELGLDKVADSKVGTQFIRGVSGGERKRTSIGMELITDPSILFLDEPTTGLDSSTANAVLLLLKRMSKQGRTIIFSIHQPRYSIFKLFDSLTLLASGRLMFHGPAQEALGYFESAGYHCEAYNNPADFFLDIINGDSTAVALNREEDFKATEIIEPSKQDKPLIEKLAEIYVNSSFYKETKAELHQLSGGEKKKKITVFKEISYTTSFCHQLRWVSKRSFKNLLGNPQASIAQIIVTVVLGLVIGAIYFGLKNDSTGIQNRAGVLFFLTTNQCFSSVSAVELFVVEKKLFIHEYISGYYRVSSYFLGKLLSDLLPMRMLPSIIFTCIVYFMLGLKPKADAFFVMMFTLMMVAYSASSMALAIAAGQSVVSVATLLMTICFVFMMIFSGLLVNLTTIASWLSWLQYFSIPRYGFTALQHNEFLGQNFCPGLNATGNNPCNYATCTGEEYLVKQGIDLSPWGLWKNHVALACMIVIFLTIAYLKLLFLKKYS

binding result: binds
B1: 5D3 antibody (antibody, V domains shown)
VH: QVQLQESGPGLVKPSQSLSLTCTVTGFSITSDYAWNWIRQFPGKKLEWMGYINFDGGTTYNPSLRGRISITRDTSKNQFFLQLRSVTPEDTATYYCATFYGAKGTLDYWGQGTSVTVSS
VL: DIVLTQSPSSFSVSLGDRVTISCKASGYILNRLAWYQQKPGNAPRLLISGATSLETGFPSRFSGTGSGKDYTLSISSLQTEDVGTYYCQQYWSTPWTFGGGTKLEIR
notes: the PDB entry holds the Fab only; also called conformation specific 5D3 antibody
